Legend:
Assay in all cases: GST fusion protein interaction assay
Conditions in all cases: 35S-labeled IVTT protein as prey
GST-hMSH6 = target: T1, GST-hMSH6 (Homo sapiens, UniProt P52701); type: binding
T1 construct: GST fusion proteins which comprised either full length hMSH3 or full length hMSH6; made in house; host or cells: E. coli (XL-blue), pGEX
Experimental: (§1) An overnight culture of E. coli XL-blue cells which harbored pGEX-hMSH(X) (i.e. ‘X’ being 2, 3, or 6) was grown in LB with […] ampicillin. 50 milliliter of Luria broth containing ampicillin was inoculated with 1 milliliter of the overnight culture, and the culture was incubated until the optical density, as assessed at 600 nanometers, was about 0.5. IPTG was added to a final concentration of 0.1 millimolar, and the culture container placed in a shaker at 30° C. for 2 hours to generate induced cells. […] GST-fusion protein levels were quantified as described herein. […] GST-fusion protein expression levels were quantitated by Coomassie Brilliant Blue staining of protein separated by SDS-PAGE gels, using BSA as a standard.
(§2) In vitro transcription and translation (IVTT) reactions involving ^35S-Methionine were performed with pET-hMSH(Y) (i.e. where ‘Y’ was 2, 3, or 6) using purified DNA according to the manufacturers recommendations. […] This value was calculated using the specific activity of ^35 S-Methionine, correcting for the number of methionine residues in each IVTT construct and using SDS-PAGE and a Molecular Dynamics Phosphorlmager device equipped with ImageQuant software (Sunnyvale, Calif.). […]

GST-hMSH2 = target: T2, GST-hMSH2 (Homo sapiens, UniProt P43246); type: binding
T2 construct: made in house; host or cells: E. coli (XL-blue), pGEX
T2 sequence (P43246 whole entry): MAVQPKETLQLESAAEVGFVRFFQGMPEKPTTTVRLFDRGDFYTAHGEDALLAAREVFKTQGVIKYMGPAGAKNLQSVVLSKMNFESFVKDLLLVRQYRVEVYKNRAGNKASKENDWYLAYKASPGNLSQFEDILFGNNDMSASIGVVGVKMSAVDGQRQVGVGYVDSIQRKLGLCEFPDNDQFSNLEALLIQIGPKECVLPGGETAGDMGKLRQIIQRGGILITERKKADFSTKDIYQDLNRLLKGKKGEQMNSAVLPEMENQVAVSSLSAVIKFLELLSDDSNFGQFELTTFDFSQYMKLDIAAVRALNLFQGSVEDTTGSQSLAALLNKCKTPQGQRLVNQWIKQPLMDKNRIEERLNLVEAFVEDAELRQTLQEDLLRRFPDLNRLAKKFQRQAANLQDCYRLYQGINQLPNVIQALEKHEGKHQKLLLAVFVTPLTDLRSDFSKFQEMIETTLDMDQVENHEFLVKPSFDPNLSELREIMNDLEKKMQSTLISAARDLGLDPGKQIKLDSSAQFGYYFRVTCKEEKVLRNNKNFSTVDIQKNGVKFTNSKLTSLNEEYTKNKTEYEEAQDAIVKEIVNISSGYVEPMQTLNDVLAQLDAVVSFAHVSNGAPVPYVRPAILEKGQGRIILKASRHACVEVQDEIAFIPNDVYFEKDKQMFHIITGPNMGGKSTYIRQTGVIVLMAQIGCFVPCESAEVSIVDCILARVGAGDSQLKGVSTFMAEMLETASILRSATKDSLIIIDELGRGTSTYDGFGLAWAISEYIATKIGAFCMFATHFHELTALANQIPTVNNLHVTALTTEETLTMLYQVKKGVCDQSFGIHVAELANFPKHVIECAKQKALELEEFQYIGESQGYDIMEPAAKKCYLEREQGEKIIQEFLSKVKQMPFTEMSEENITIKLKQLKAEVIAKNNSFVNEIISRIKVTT
Experimental: as §1, §2

GST-hMSH3 = type: binding, human
Experimental: as §1, §2

T1 sequence (P52701 whole entry, the tested form may be a part): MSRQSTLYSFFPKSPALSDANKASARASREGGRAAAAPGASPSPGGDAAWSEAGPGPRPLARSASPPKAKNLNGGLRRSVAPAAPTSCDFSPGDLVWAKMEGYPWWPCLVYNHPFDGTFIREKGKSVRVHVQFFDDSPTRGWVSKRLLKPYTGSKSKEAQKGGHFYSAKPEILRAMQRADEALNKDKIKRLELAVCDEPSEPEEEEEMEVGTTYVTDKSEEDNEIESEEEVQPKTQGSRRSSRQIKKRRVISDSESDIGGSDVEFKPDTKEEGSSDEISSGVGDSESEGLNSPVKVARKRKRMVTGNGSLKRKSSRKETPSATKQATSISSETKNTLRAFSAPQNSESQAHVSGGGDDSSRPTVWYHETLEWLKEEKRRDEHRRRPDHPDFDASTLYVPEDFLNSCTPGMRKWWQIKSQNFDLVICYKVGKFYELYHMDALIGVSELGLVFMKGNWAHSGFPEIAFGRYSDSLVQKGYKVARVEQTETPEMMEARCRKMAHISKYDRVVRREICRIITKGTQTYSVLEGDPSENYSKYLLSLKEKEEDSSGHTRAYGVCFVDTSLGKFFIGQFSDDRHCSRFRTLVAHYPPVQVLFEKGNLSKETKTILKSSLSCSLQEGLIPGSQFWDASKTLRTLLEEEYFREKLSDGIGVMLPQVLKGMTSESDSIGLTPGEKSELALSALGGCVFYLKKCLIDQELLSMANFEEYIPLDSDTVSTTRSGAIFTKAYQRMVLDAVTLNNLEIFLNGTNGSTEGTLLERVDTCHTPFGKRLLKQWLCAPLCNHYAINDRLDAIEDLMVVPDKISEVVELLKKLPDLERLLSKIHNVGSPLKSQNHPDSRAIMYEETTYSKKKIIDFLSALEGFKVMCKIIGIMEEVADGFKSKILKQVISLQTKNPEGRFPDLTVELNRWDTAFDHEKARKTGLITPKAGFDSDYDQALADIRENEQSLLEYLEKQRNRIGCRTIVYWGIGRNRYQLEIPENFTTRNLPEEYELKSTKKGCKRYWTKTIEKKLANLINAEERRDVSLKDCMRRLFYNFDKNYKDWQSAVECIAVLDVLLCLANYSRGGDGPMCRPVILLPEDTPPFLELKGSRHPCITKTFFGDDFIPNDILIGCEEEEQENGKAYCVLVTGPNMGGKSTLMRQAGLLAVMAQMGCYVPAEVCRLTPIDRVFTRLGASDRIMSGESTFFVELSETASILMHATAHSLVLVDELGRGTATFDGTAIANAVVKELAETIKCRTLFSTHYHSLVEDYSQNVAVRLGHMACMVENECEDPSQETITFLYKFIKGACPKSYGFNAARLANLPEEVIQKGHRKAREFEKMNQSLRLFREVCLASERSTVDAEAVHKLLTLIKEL

B1: hMSH5: human MutS homolog, putative 834-amino-acid protein encoded by clone b29 (SEQ ID NO: 29) (protein)
chain: MASLGANPRRTPQGPRPGAASSGFPSPAPVPGPREAEEEEVEEEEELAEIHLCVLWNSGYLGIAYYDTSDSTIHFMPDAPDHESLKLLQRVLDEINPQSVVTSAKQDENMTRFLGKLASQEHREPKRPEIIFLPSVDFGLEISKQRLLSGNYSFIPDAMTATEKILFLSSIIPFDCLLTVRALGGLLKFLGRRRIGVELEDYNVSVPILGFKKFMLTHLVNIDQDTYSVLQIFKSESHPSVYKVASGLKEGLSLFGILNRCHCKWGEKLLRLWFTRPTHDLGELSSRLDVIQFFLLPQNLDMAQMLHRLLGHIKNVPLILKRMKLSHTKVSDWQVLYKTVYSALGLRDACRSLPQSIQLFRDIAQEFSDDLHHIASLIGKVVDFEGSLAENRFTVLPNIDPEIDEKKRRLMGLPSFLTEVARKELENLDSRIPSCSVIYIPLIGFLLSIPRLPSMVEASDFEINGLDFMFLSEEKLHYRSARTKELDALLGDLHCEIRDQETLLMYQLQCQVLARAAVLTRVLDLASRLDVLLALASAARDYGYSRPRYSPQVLGVRIQNGRHPLMELCARTFVPNSTECGGDKGRVKVITGPNSSGKSIYLKQVGLITFMALVGSFVPAEEAEIGAVDAIFTRIHSCESISLGLSTFMIDLNQVAKAVNNATAQSLVLIDEFGKGTNTVDGLALLAAVLRHWLARGPTCPHIFVATNFLSLVQLQLLPQGPLVQYLTMETCEDGNDLVFFYQVCEGVAKASHASHTAAQAGLPDKLVARGKEVSDLIRSGKPIKPVKDLLKKNQMENCQTLVDKFMKLDLEDPNLDLNVFMSQEVLPAATSIL
modifications: left off: a dimerising Fc or GST; large carriers; small tags and cut ends
did not interact: interaction with GST-hMSH6 fusion protein (GST-hMSH6) | interaction with GST-hMSH2 fusion protein (GST-hMSH2) | interaction with GST-hMSH3 fusion protein (GST-hMSH3)

From US20020058275A1, “Compositions, kits, and methods for effecting adenine nucleotide modulation of DNA mismatch recognition proteins” (Thomas Jefferson University, priority 1997, published 2002)
